{"source": "patent US20150175711A1", "about": "(SINOMAB BIOSCIENCE, published 2015)", "molecules": {"B1": {"name": "scFv Phage #3 (scFv)", "scFv": "QVQLVQSGPELVKPGASVKMSCKASGYTFTNYVTHWVKQKPGQGLEWIGYINPYSDGSKYNEKFKGKATLTSDESSSTAYMEVSSLTSEDSAVYYCARGKTEWFPYWGQGTPLTVSGGGGSGSGSSGGGGDIVLTQTPASLAVSLGQRATISCKASQSVDYDGDSYMNWYQQKPGQPPKLLIYAASNLESGIPARFSGSGSGTDFTLNIHPVEEEDAATYYCQQSNEDPFTFGGGTKLEI", "notes": "the phage coat protein fusion is not described; also called scFv isolated from phage #3"}}, "key": {"[1]": {"molecular_target": "anti-idiotype mIgG Fab-GPI-DAF fusion protein on transfected SP2/0 cells", "sequence (heavy, as listed by the source)": "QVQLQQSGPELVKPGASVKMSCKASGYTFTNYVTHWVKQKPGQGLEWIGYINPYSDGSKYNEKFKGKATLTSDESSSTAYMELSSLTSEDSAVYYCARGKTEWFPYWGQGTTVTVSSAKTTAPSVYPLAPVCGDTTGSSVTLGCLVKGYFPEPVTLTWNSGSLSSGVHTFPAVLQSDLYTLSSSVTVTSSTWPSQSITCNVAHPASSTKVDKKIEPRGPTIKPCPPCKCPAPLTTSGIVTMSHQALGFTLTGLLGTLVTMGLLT", "assay": "cell-based ELISA, SM03 on transfected SP2/0 GPI clone 10 (surface expression graded -), anti-human Fc-HRP"}, "[2]": {"molecular_target": "anti-idiotype mIgG Fab-glycophorin A fusion protein on transfected SP2/0 cells", "sequence (heavy, as listed by the source limits assumed, chain 1 of 2)": "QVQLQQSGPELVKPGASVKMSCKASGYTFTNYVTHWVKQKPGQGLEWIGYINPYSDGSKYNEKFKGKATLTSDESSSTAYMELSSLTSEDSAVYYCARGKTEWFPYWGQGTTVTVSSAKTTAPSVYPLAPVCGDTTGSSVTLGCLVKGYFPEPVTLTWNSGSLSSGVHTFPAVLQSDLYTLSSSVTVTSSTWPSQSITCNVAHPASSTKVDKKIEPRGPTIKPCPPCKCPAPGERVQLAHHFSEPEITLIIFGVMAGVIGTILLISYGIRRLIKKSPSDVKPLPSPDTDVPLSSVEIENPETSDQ", "sequence (light, as listed by the source limits assumed, chain 2 of 2)": "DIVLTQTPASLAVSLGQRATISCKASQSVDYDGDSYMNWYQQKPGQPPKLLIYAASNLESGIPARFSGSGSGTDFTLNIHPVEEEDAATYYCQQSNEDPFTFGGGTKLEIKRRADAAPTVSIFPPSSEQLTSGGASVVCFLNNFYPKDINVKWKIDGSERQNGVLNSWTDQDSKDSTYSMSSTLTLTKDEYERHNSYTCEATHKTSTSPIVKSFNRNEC", "assay": "cell-based ELISA, SM03 on transfected SP2/0 GlycoA clone 8 (surface expression graded -), anti-human Fc-HRP"}, "[3]": {"molecular_target": "anti-idiotype mIgG Fab-glycophorin A fusion protein on transfected SP2/0 cells", "assay": "cell-based ELISA, SM03 on transfected SP2/0 GlycoA clone 14 (surface expression graded -), anti-human Fc-HRP"}, "[4]": {"molecular_target": "anti-idiotype mIgG Fab-glycophorin A fusion protein on transfected SP2/0 cells", "assay": "cell-based ELISA, SM03 on transfected SP2/0 GlycoA clone 5 (surface expression graded +++), anti-human Fc-HRP"}, "[5]": {"molecular_target": "anti-idiotype mIgG Fab-GPI-DAF fusion protein on transfected SP2/0 cells", "assay": "cell-based ELISA, SM03 on transfected SP2/0 GPI clone 7 (surface expression graded -), anti-human Fc-HRP"}, "[6]": {"molecular_target": "anti-idiotype IgD-TM on transfected SP2/0 cells", "sequence (heavy, as listed by the source limits assumed, chain 1 of 2)": "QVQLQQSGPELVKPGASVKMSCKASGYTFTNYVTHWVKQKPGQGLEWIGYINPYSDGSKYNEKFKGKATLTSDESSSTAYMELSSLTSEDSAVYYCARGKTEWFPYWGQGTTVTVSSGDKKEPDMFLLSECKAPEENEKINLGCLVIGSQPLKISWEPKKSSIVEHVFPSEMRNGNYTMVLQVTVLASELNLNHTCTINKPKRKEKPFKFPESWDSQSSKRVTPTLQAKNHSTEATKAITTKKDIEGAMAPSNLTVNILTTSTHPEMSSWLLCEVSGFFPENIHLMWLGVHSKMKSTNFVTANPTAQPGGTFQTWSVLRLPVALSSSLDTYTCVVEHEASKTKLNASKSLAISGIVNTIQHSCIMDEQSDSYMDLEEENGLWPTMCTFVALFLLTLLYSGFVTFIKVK", "sequence (light, as listed by the source limits assumed, chain 2 of 2)": "as the sequence (light, as listed by the source limits assumed, chain 2 of 2) above", "assay": "cell-based ELISA, SM03 10 ug/ml on transfected SP2/0 Clone AF9 (surface expression graded -), anti-human Fc-HRP"}, "[7]": {"molecular_target": "anti-idiotype IgD-TM on transfected SP2/0 cells", "assay": "cell-based ELISA, SM03 10 ug/ml on transfected SP2/0 Clone AG5 (surface expression graded +++), anti-human Fc-HRP"}, "[8]": {"molecular_target": "anti-idiotype IgD-TM on transfected SP2/0 cells", "assay": "cell-based ELISA, SM03 10 ug/ml on transfected SP2/0 Clone AB4 (surface expression graded -), anti-human Fc-HRP"}, "[9]": {"molecular_target": "anti-idiotype IgD-TM on transfected SP2/0 cells", "assay": "cell-based ELISA, SM03 10 ug/ml on transfected SP2/0 Clone BF9 (surface expression graded -), anti-human Fc-HRP"}, "[10]": {"molecular_target": "anti-idiotype mIgG Fab-GPI-DAF fusion protein on transfected SP2/0 cells", "assay": "cell-based ELISA, SM03 on transfected SP2/0 GPI clone 4 (surface expression graded +++), anti-human Fc-HRP"}, "[11]": {"molecular_target": "anti-idiotype IgD-TM on transfected SP2/0 cells", "assay": "cell-based ELISA, SM03 10 ug/ml on transfected SP2/0 Clone BB4 (surface expression graded -), anti-human Fc-HRP"}, "[12]": {"molecular_target": "anti-idiotype mIgG Fab-GPI-DAF fusion protein on transfected SP2/0 cells", "assay": "cell-based ELISA, SM03 on transfected SP2/0 GPI clone 8 (surface expression graded -), anti-human Fc-HRP"}, "[13]": {"molecular_target": "anti-idiotype mIgG Fab-glycophorin A fusion protein on transfected SP2/0 cells", "assay": "cell-based ELISA, SM03 on transfected SP2/0 GlycoA clone 3 (surface expression graded -), anti-human Fc-HRP"}, "[14]": {"molecular_target": "anti-idiotype mIgG Fab-glycophorin A fusion protein on transfected SP2/0 cells", "assay": "cell-based ELISA, SM03 on transfected SP2/0 GlycoA clone 10 (surface expression graded -), anti-human Fc-HRP"}, "[15]": {"molecular_target": "anti-idiotype mIgG Fab-GPI-DAF fusion protein on transfected SP2/0 cells", "assay": "cell-based ELISA, SM03 on transfected SP2/0 GPI clone 5 (surface expression graded +), anti-human Fc-HRP"}, "[16]": {"molecular_target": "anti-idiotype mIgG Fab-GPI-DAF fusion protein on transfected SP2/0 cells", "assay": "cell-based ELISA, SM03 on transfected SP2/0 GPI clone 1 (surface expression graded -), anti-human Fc-HRP"}, "[17]": {"molecular_target": "anti-idiotype mIgG Fab-glycophorin A fusion protein on transfected SP2/0 cells", "assay": "cell-based ELISA, SM03 on transfected SP2/0 GlycoA clone 1 (surface expression graded -), anti-human Fc-HRP"}, "[18]": {"molecular_target": "anti-idiotype mIgG Fab-GPI-DAF fusion protein on transfected SP2/0 cells", "assay": "cell-based ELISA, SM03 on transfected SP2/0 GPI clone 3 (surface expression graded +++), anti-human Fc-HRP"}, "[19]": {"molecular_target": "anti-idiotype mIgG Fab-GPI-DAF fusion protein on transfected SP2/0 cells", "assay": "cell-based ELISA, SM03 on transfected SP2/0 GPI clone 9 (surface expression graded -), anti-human Fc-HRP"}, "[20]": {"molecular_target": "anti-idiotype IgD-TM on transfected SP2/0 cells", "assay": "cell-based ELISA, SM03 10 ug/ml on transfected SP2/0 Clone BB5 (surface expression graded -), anti-human Fc-HRP"}, "[21]": {"molecular_target": "anti-idiotype mIgG Fab-glycophorin A fusion protein on transfected SP2/0 cells", "assay": "cell-based ELISA, SM03 on transfected SP2/0 GlycoA clone 9 (surface expression graded -), anti-human Fc-HRP"}, "[22]": {"molecular_target": "anti-idiotype mIgG Fab-glycophorin A fusion protein on transfected SP2/0 cells", "assay": "cell-based ELISA, SM03 on transfected SP2/0 GlycoA clone 15 (surface expression graded +++), anti-human Fc-HRP"}, "[23]": {"molecular_target": "anti-idiotype mIgG Fab-GPI-DAF fusion protein on transfected SP2/0 cells", "assay": "cell-based ELISA, SM03 on transfected SP2/0 GPI clone 6 (surface expression graded -), anti-human Fc-HRP"}, "BSA": {"molecular_target": "T1, BSA (UniProt P02769 25-607)", "T1 construct": "also called control protein (BSA)", "T1 sequence (P02769 25-607 limits assumed)": "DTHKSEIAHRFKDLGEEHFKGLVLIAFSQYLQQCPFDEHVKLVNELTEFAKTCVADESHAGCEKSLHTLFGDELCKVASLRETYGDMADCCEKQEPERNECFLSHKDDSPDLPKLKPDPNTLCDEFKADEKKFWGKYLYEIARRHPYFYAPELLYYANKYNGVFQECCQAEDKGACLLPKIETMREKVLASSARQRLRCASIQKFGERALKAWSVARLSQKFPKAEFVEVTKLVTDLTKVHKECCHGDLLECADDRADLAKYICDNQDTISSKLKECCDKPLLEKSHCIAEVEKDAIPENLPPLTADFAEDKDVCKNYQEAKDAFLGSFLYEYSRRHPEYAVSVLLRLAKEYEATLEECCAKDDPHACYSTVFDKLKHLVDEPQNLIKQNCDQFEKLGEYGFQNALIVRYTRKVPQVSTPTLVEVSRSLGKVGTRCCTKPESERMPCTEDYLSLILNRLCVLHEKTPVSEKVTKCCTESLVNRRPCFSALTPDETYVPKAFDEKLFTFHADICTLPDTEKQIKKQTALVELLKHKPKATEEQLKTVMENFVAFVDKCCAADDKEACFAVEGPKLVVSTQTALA", "assay": "phage ELISA, 1 ug BSA coated per well, anti-M13-HRP detection", "protocol": "Phages that survived panning were rescued. The binding specificities of selected phages were evaluated by Phage-ELISA using the target anti-CD22 antibodies RFB4, SM03, and framework-patched (humanized) SM06 and other control antibodies as antigens. […] After washing five times with borate washing buffer, pH8.0, horse radish peroxidase (HRP)-conjugated anti-M13 mouse antibody (Amersham) at a dilution fold of 3,000 was added."}}, "data": [{"molecule": "SM03 chimeric anti-CD22 antibody", "values": [{"measurement": "OD450 nm", "setting": "[1]", "result": 0.85, "unit": "OD450 nm"}, {"measurement": "OD450 nm", "setting": "[2]", "result": 0.284, "unit": "OD450 nm"}, {"measurement": "OD450 nm", "setting": "[3]", "result": 0.437, "unit": "OD450 nm"}, {"measurement": "OD450 nm", "setting": "[4]", "result": 3.53, "unit": "OD450 nm"}, {"measurement": "OD450 nm", "setting": "[5]", "result": 0.7, "unit": "OD450 nm"}, {"measurement": "OD450 nm", "setting": "[6]", "result": 0.329, "unit": "OD450 nm"}, {"measurement": "OD450 nm", "setting": "[7]", "result": 3.08, "unit": "OD450 nm"}, {"measurement": "OD450 nm", "setting": "[8]", "result": 0.428, "unit": "OD450 nm"}, {"measurement": "OD450 nm", "setting": "[9]", "result": 0.459, "unit": "OD450 nm"}, {"measurement": "OD450 nm", "setting": "[10]", "result": 3.77, "unit": "OD450 nm"}, {"measurement": "OD450 nm", "setting": "[11]", "result": 0.501, "unit": "OD450 nm"}, {"measurement": "OD450 nm", "setting": "[12]", "result": 0.618, "unit": "OD450 nm"}, {"measurement": "OD450 nm", "setting": "[13]", "result": 0.406, "unit": "OD450 nm"}, {"measurement": "OD450 nm", "setting": "[14]", "result": 0.498, "unit": "OD450 nm"}, {"measurement": "OD450 nm", "setting": "[15]", "result": 0.977, "unit": "OD450 nm"}, {"measurement": "OD450 nm", "setting": "[16]", "result": 0.623, "unit": "OD450 nm"}, {"measurement": "OD450 nm", "setting": "[17]", "result": 0.579, "unit": "OD450 nm"}, {"measurement": "OD450 nm", "setting": "[18]", "result": 3.64, "unit": "OD450 nm"}, {"measurement": "OD450 nm", "setting": "[19]", "result": 0.618, "unit": "OD450 nm"}, {"measurement": "OD450 nm", "setting": "[20]", "result": 0.572, "unit": "OD450 nm"}, {"measurement": "OD450 nm", "setting": "[21]", "result": 0.716, "unit": "OD450 nm"}, {"measurement": "OD450 nm", "setting": "[22]", "result": 3.38, "unit": "OD450 nm"}, {"measurement": "OD450 nm", "setting": "[23]", "result": 0.736, "unit": "OD450 nm"}]}, {"molecule": "B1", "values": [{"measurement": "binding result", "setting": "BSA", "result": "no binding"}]}]}
